# The nanobody polyreactivity screen of Harvey et al. (2022)
# Experiment: yeast display, Sf9 membrane polyspecificity reagent, FACS + sequencing; frameworks hold sequencing errors
# How it was run: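 A synthetic nanobody library was expressed on Saccharomyces cerevisiae BJ5465 by galactose induction for 36–48 hours. The library was stained for 1 hour at 4 °C with 10% biotinylated, detergent-solubilized Sf9 membrane reagent and enriched with streptavidin microbeads before FACS. Low and high (top ~1%) gates were set on anti-HA fluorescence for expression and streptavidin fluorescence for reagent binding, and each polyreactivity label reflects the gate of origin.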
row,Sequence,polyreactivity (PSR sort gate)
1,QVQLVESGGGLVQAGGILRLSCAASGNIFAFYAMGWYRQAPVKERELVAAITDGTTTNYADSVKGRFTISRDNAKNTVYLQMNSLIPEDTAVYYSAADTGWWPWLERFRHYYYWGQGTQVTVSS,low polyreactivity
2,QVQLVVSGGGLVQAGGSLRLSCAASGIIFPFYVMGWYRQAPGKERELVAAITWSGDGTYYADSVKGRFTISRDNAKNTVYLQMNSLKPEDTAVYYCAAQWYYGGVKYYYWGQGTQVTVSS,low polyreactivity
3,QVQLVESGGGLVQAGGSLRLSCAASGSTFSDYAMGWYRQAPGKERELVAGITETGTTTYYADSVKGRFTISRDNAKNTVYLQMNSLKPEDTAVYYCAAYVVTYYYGTGYYSYDYWGQGTQVNVSS,low polyreactivity
4,QVQLVESGGGLVQAGGSLRLSCAASGFTFLRYAMGWYRQAPGKESELVAAISTSGGSTSYADSVKGRFTISRDNAKNTVYLQMNSLKPEDTAVYYCNAVLYKVSISEYDYWGQGTQVTVSS,high polyreactivity
5,QVQLVESGGGLVQAGGSLRLSCAASGSIFYKYAMGWYRQARGKERELVAAINRGVSTYYADSVKGRFTISRDNAKNTVYLQLTSLKPEDTAVYYCNADSTELRGYYYWGLGTQVTVSS,low polyreactivity
6,QVQLVESGGGLVKAGGSLRLSCAASGLTFAINTMGWYRQSRGKERELVAAITGSGGSTYYADSVKGRFTISRDNAKNTVYLQMNSLKPEDSAVYYCAAELLYVQGYAMDYWGQGTQVTVSS,low polyreactivity
7,QVQLVESGGGLVQAGGSLRLSCAASGFSFLQYVMGWYSQAPGKERELFAAITSGGSTYYADSVKGRFTISRDNAKNTVYLQMNSLKPDDTAVYYCATDVADNTFYALYGSDYWGQCTQVTVSS,low polyreactivity
8,QVQLVESGGGLVQAGGSLRLSCAASGFTFSKYAMGCSRQAPGKETELVAAISRSAGSTYYADSVKRRFTISREYAKNTVYLQMNSLKPEDTAVYYCARDNPRRPSGYNYSGQGTQVTVSS,high polyreactivity
9,QVQLVESGGGLVQAGGSLRLSCAASGRTFVYNAMGWYRQAPGKERELVAAIRFSGGRTYYADSVKGRFTISRDNAKNTVYLQMNSLKPEDTAVYYCAVTGELTLYTWRSFEYYYWGQGTQVTVSS,low polyreactivity
10,QVQLVESGGGLVQAGGSLRLSCAASGRTFNYNSMGWYRQAPGKERELVAAISATGGTTYYADSVKGRFTISRDNAKNTVYLQMNSLKPEDTAVYYCAADTPPYYAYWDVSFEYYYWGQGTQVTVSS,low polyreactivity
11,QVHLVESGGGLVQAGGSLRLSCAPSGNIFFSNAMGWYRQAPGKERELVASISQSGGSTYYADSLKGRFTISRDNAKNTVYFQMNSLKPEDTAVYYCNAFSITFYDFNSWGQGTQVTVSS,low polyreactivity
12,QVQLVESGGGLVQAGGSLRLICAASGRTFFYYAMGWYRQAPGKEREFVAAISWSAGSTYYADSVKGRFTISRDNAKITVSLQMNSLKPKDTGVYYCAAARPSGGGFDYWGQGTQVTVSS,high polyreactivity
13,QVQLVESGGGLVQAGGSLRLSCAASGRIFGYAMGWYRQAPGKERELVAAITSSGGRTYYADSVKGRFTISRDNVKNTVYLQMNSLKPVDTAVYYCAKKWPVYRSYDYWGQGTQVTVSS,high polyreactivity
14,QVQLVESGGGLVQAGGSLRLSCAASGRIIKFYAMGWYRQAPGKERELVAVIRSGTRTKYADSVKGRFTISRDNAKNTVYLQMNSLKPVDTAVYYCIRYFSEALLHGSSYNRYYYWGQGTQVTVSS,low polyreactivity
15,QVQLVESGGGLVQAGRSLRLSCAASGRIFNYYSMGWYRQAPGKERELVAAISSGGSTYYADSVKGRFTISRDYAKNTVYLQMNSLKPEDTAVYYCAAAYGDYGYWGQGTLVTVSS,high polyreactivity
16,QVQLVESGGGLVQAVGSLRLSCAASGRTIAGYTMGWYRQARGQERELVAAISGRGGSTYYADSVKGRYTISRDNAKNTVYLQMNSLKPEDTAVYYCAAYTQGYWGRGRYGYCGQGTQVTVSS,high polyreactivity
17,QVQLVESGGGLVQAGGSLRLSCAASGRIFYQNAMGWSRPAPGKERELVAGITRGGSTYYADSVKGRFTISRDNAKNTVYLQMNSLKPEDTAVYYCAVAFWRTKWYDYWGQGTQVTVSS,low polyreactivity
18,QVQLVESGGGLVQAGGSLRLSCAASGNTFATYAMGWYRQAPGKERELVAAITWSGGSTYYADSVKGRFTISRDNAKNNVYLQMNSLKPEDTAVYYCAADYLYYAIPAYYWDTGYDYWGQGTQVTVSS,low polyreactivity
19,QVQLVESGGGLFQAGGSRRLICSASGFTFASNAMGWYRQAPGKERELVAAITSRGGGTYYADSVKGRFTISRDNAKNTVYLQMNSLKPEDTAVYYCNVVYGVRYFNSRGYYYWGQGTQVTVSS,high polyreactivity
20,QVQLVESGGGLVQAGGSLRLSCAASGRIFGPYVMGWYRQAPGKERELVAAISTSGTSTYYADSVKGRFTISRDNAKNTVYLQMNSLKPEDTAVYDCGIRSGARHRLMDYWGQGTQVTVSS,low polyreactivity

row,Sequence,polyreactivity (PSR sort gate)
1,QVQLVESAGRLVQAGGSLRLSCAPSGSIFSHNAMGWYRPAPGKERELVAAISRSGGSTYYADSVKGRFTISRDNAKNTVYLQMNSQKPEDTAVYYCNALGRISNHTLYDYWGQGTQVTVSS,low polyreactivity
2,QVQLVESGGGLVQAGGSLRLSCAASGLIFYRYAMGWYRQAPGKERELVAAISSGGSTYYADSVKGRFTISRDNAKNTVYLQMNSLKPEDTAVYYCNAKVYGRRYDYWGQGTQVTVSS,high polyreactivity
3,QVQLVESGGGLVQAGGSLRLSCAASGSTSARYAMGWYRQAPGKERELVATITRSGTTKYADSVKGRFTISRDNAKNTVYLQMNSLKPEDTAVYYCNSDTYFPLYDYWGQGTQVTVSS,low polyreactivity
4,QVQLVESGGGLVQAGGSLLLSCAASGITFIRNGMGWYRPAPGKERELVAAISDTGARTYYADSVKGRFTISRDNAKNTVYLQMNSLKPEDTAVYYCAADFQTYWSHLYGYIGQYDYWGQGTQVTVSS,low polyreactivity
5,QVQLVESGGGLVQAGGSLRLSCAASGRIFARYAMGWYRQAPGKETELVAAISRGGSTKYADSVKGRFTISRDNAKNTVYLQMNSLNPVDTAVYYCARQLWGSPYGAYYAGDYWGQGTQVTVSS,low polyreactivity
6,QVQLVESGGGLVQAGGSLRLSCAASGSIFKQNTMGWYRQAPGKETELVAAISSGGSTYYADSVKGRFTISRDNAKNTVYLQMNSLKPEDTAVYYCAKYYDWDYYLPLEGDYWGQGTQVTVSS,low polyreactivity
7,QVQLVESGGGFVHAGGSLRLSCAASGITSRFYAIGWYRQAPAKERELVAAITSGGGSTRYSDSVKGRFTISRDNAKNTVYLQMNSLKPEDTAVYYCNARVLYYVNGYGGCKRYGYWGQGTQVNVSS,high polyreactivity
8,QVQLVESGGGLVQAGGSLRLSWAASGGTFVPYAMGWYRQAPGTERELVARISKRGGTTYYADSVKGRFTISRDNAKYTVYLQMNSLKPEDTAVYYCAAVLPARGYYWGQGTQVTVSS,high polyreactivity
9,QVQLVESGGGLVQAGGSLRLSCGASGITFVYYTMGWYRQAPGKERELVAAISKNGGSTYYADSVKGRFTISRDNAKNTVYLQMNSLKPEYTAFSYCAAEEGYRWVRYNYWGQGTQVTVSS,high polyreactivity
10,QVQLVESGGGLVQAGGSLRLSCAASGFIFYRYAMGWYRQAPGKERELVAAISWGGGSTTYYADSVKGRFTISRDNAKNTVYLQMNRLKPEDTAVYYCAAYIGKGYGSEYYYWGQGTQVTVSS,low polyreactivity
11,QVQLVESGGGLVQAGGSLRLSCAASGRTLYPYAMGWYRQAPGKERELVATITWGDGSTSYADSVKGRFTISRDNAKNTVYLQMNSLKPEDTAVYYCNVRISNTSYRYPTFDYWGQGTQVTVSS,low polyreactivity
12,QVQLVETGGGLVQAGGSLRLSCAASGNHFSTYTMGGYRQAPGKERELVAAISTSGTSTYYADSVKGRFTISRDNAKNTVYLQMNSLKPEDTAVYYCAASYLRSSQRMDYWGQGTQVTVSS,low polyreactivity
13,QVQLVESVGGLVQAGGSLRLSCAASGRIFGWYAMGWYRQAPGKERELVAAITSGGTTYYADSVKGRFTISRDNAKNTVYLQMNSLKPEDTAVYYCAKYHWRLSFSRYPYDYWGQGTQVTVSS,high polyreactivity
14,QDQLVESGGGLVQAGGSLRLSCAASGGTFSLYAKGWYRQAPGKEREFVAAISWRGTSTYYADSVKGRFTISRDNAKNTVYLQMNSLKPEDTAVYYCAARAWHEYGSWVQGTQVTVSS,high polyreactivity
15,QVQLVESGGGLVQAGGSLRLSFAASGFTFCIYAMGWYRQAPGKERELVAAINVSEGSTYYADSVKGRFTISRDNAKNTVYLQMNSLKPEDTAVYYCDAYLYDTIYTSYREYDYWGQGTQVTVSS,low polyreactivity
16,QVQLVESGGGLVQAGGSLRLSCAASGRTFRSYTRGWYRQAAGKERELVAAINRGDRTYADSVKGRFTISRDNAKNTVYLQMNSLKPEDTAVYYCAARYYGGYGKQPRARYGYWGQGTQVTVSS,high polyreactivity
17,QVQLVESGGGLVQAGGSLRLSCAASGFTFVRYAMRWYRQAPGTERELVAAISYSGGRTYYADSVKGRFTISRDTAKNTVYLQMNSLKPEDTAVYYCAADAFRGFYWGQGTQVTVSS,high polyreactivity
18,QVQLVESGGGLVQAGGSLRLSCAASGSIFTGNTMGWYRQAPGKDRELVATISRRGGSTYYADSVKGRFTITRDNAKYSVYLQMNSLKPEDTAVYYCAARGPYRPPHGDAYYTYGYWGQGTQVTVSS,high polyreactivity
19,QVQLVESGGGLVQAGGSLRLSCAASVRIFGSNVMGWYRQAPGKERELVASISSGGTTYYADSVKGLFTISRDNAKNTVYLQMNSLKPEDTAGYYCAKQWTRIYQYRWYPGTRTGYDYWGHGTQVTVSS,high polyreactivity
20,QVQLVESGGGLVQAGGSLRLSCAASGSTFAYYAMGWYRQAPGKERELVAAISWSGGSTYYADSVKGRFTISRDNAKNTVYLQMNSLKPEDTAVYYCNKRNVLDYDYWGQGTQVTVSS,low polyreactivity
